Measurements taken from patent publication US20230074436A1 (DENALI THERAPEUTICS, published 2023).
No end group written: not given here. *: point of attachment. Biotin = O=C1N[C@H]2[C@H](CS[C@H]2CCCCC(=O)*)N1

Key:
[1] = target: T1, asyn_113-127_126A (human); assay: Ala-scan peptide ELISA, row C, run 1; further: test concentration or dose not given here
T1 construct: substitution is already in the entry; also called pep16
T1 peptide: Biotin-LEDMPVDPDNEAYAM

[2] = target: T2, asyn_113-127_125A (human); assay: Ala-scan peptide ELISA, row C, run 1; further: test concentration or dose not given here
T2 construct: substitution is already in the entry; also called pep15
T2 peptide: Biotin-LEDMPVDPDNEAAEM

[3] = target: T3, asyn_113-127_122A (human); assay: Ala-scan peptide ELISA, row C, run 1; further: test concentration or dose not given here
T3 construct: substitution is already in the entry; also called pep11
T3 peptide: Biotin-LEDMPVDPDAEAYEM

[4] = target: T4, asyn_113-127_115A (human); assay: Ala-scan peptide ELISA, row C, run 1; further: test concentration or dose not given here
T4 construct: substitution is already in the entry; also called pep4
T4 peptide: Biotin-LEAMPVDPDNEAYEM

[5] = target: T5, asyn_113-127_119A (human); assay: Ala-scan peptide ELISA, row C, run 1; further: test concentration or dose not given here
T5 construct: substitution is already in the entry; also called pep8
T5 peptide: Biotin-LEDMPVAPDNEAYEM

[6] = target: T6, asyn_113-127_121A (human); assay: Ala-scan peptide ELISA, row C, run 1; further: test concentration or dose not given here
T6 construct: substitution is already in the entry; also called pep10
T6 peptide: Biotin-LEDMPVDPANEAYEM

[7] = target: T7, asyn_113-127_124P (human); assay: Ala-scan peptide ELISA, row C, run 1
T7 construct: substitution is already in the entry; also called pep14
T7 peptide: Biotin-LEDMPVDPDNEPYEM

[8] = target: T8, asyn_113-127_120A (human); assay: Ala-scan peptide ELISA, row C, run 1
T8 construct: substitution is already in the entry; also called pep9
T8 peptide: Biotin-LEDMPVDADNEAYEM

[9] = target: T9, asyn_113-127_124G (human); assay: Ala-scan peptide ELISA, row C, run 1
T9 construct: substitution is already in the entry; also called pep13
T9 peptide: Biotin-LEDMPVDPDNEGYEM

[10] = target: T10, biotinylated human alpha-synuclein (human, UniProt P37840 1-140); assay: Ala-scan peptide ELISA, row C, run 1
[11] = target: T11, asyn_113-127_114A (human); assay: Ala-scan peptide ELISA, row C, run 1
T11 construct: substitution is already in the entry; also called pep3
T11 peptide: Biotin-LADMPVDPDNEAYEM

[12] = target: T1, asyn_113-127_126A; assay: Ala-scan peptide ELISA, row A, run 2; further: test concentration or dose not given here
[13] = target: T2, asyn_113-127_125A; assay: Ala-scan peptide ELISA, row A, run 2; further: test concentration or dose not given here
[14] = target: T7, asyn_113-127_124P; assay: Ala-scan peptide ELISA, row A, run 2; further: test concentration or dose not given here
[15] = target: T9, asyn_113-127_124G; assay: Ala-scan peptide ELISA, row A, run 2; further: test concentration or dose not given here
[16] = target: T10, biotinylated human alpha-synuclein; assay: Ala-scan peptide ELISA, row A, run 2; further: test concentration or dose not given here
[17] = target: T12, asyn_113-127_123A (human); assay: Ala-scan peptide ELISA, row D, run 2
T12 construct: substitution is already in the entry; also called pep12
T12 peptide: Biotin-LEDMPVDPDNAAYEM

[18] = target: T1, asyn_113-127_126A; assay: Ala-scan peptide ELISA, row D, run 2
[19] = target: T2, asyn_113-127_125A; assay: Ala-scan peptide ELISA, row D, run 2
[20] = target: T3, asyn_113-127_122A; assay: Ala-scan peptide ELISA, row D, run 2
[21] = target: T13, asyn_113-127_117A (human); assay: Ala-scan peptide ELISA, row D, run 2
T13 construct: substitution is already in the entry; also called pep6
T13 peptide: Biotin-LEDMAVDPDNEAYEM

[22] = target: T4, asyn_113-127_115A; assay: Ala-scan peptide ELISA, row D, run 2
[23] = target: T14, asyn_113-127_116A (human); assay: Ala-scan peptide ELISA, row D, run 2
T14 construct: substitution is already in the entry; also called pep5
T14 peptide: Biotin-LEDAPVDPDNEAYEM

[24] = target: T15, asyn_113-127_118A (human); assay: Ala-scan peptide ELISA, row D, run 2
T15 construct: substitution is already in the entry; also called pep7
T15 peptide: Biotin-LEDMPADPDNEAYEM

[25] = target: T16, asyn_113-127 (human); assay: Ala-scan peptide ELISA, row D, run 2
T16 construct: also called pep1
T16 peptide: Biotin-LEDMPVDPDNEAYEM

[26] = target: T5, asyn_113-127_119A; assay: Ala-scan peptide ELISA, row D, run 2
[27] = target: T6, asyn_113-127_121A; assay: Ala-scan peptide ELISA, row D, run 2
[28] = target: T7, asyn_113-127_124P; assay: Ala-scan peptide ELISA, row D, run 2
[29] = target: T17, asyn_113-127_127A (human); assay: Ala-scan peptide ELISA, row D, run 2
T17 construct: substitution is already in the entry; also called pep17
T17 peptide: Biotin-LEDMPVDPDNEAYEA

[30] = target: T18, asyn_113-127_113A (human); assay: Ala-scan peptide ELISA, row D, run 2
T18 construct: substitution is already in the entry; also called pep2
T18 peptide: Biotin-AEDMPVDPDNEAYEM

[31] = target: T8, asyn_113-127_120A; assay: Ala-scan peptide ELISA, row D, run 2
[32] = target: T9, asyn_113-127_124G; assay: Ala-scan peptide ELISA, row D, run 2
[33] = target: T10, biotinylated human alpha-synuclein; assay: Ala-scan peptide ELISA, row D, run 2
[34] = target: T11, asyn_113-127_114A; assay: Ala-scan peptide ELISA, row D, run 2
[35] = target: human alpha-synuclein monomer (human, UniProt P37840 1-140); assay: SPR (Biacore), antibody captured, monomer injected, 1:1 fit

- A450 [1]: 0.371 OD
- A450 [2]: 0.049 OD
- A450 [3]: 0.052 OD
- A450 [4]: 0.417 OD
- A450 [5]: 0.059 OD
- A450 [6]: 0.443 OD
- A450 [7]: 0.051 OD
- A450 [8]: 0.323 OD
- A450 [9]: 0.34 OD
- A450 [10]: 0.588 OD
- A450 [11]: 0.417 OD
- A450 [12]: 0.469 OD
- A450 [13]: 0.078 OD
- A450 [14]: 0.069 OD
- A450 [15]: 0.396 OD
- A450 [16]: 0.907 OD
- A450 [17]: 0.321 OD
- A450 [18]: 0.342 OD
- A450 [19]: 0.05 OD
- A450 [20]: 0.051 OD
- A450 [21]: 0.405 OD
- A450 [22]: 0.266 OD
- A450 [23]: 0.366 OD
- A450 [24]: 0.357 OD
- A450 [25]: 0.331 OD
- A450 [26]: 0.046 OD
- A450 [27]: 0.335 OD
- A450 [28]: 0.05 OD
- A450 [29]: 0.414 OD
- A450 [30]: 0.339 OD
- A450 [31]: 0.18 OD
- A450 [32]: 0.287 OD
- A450 [33]: 0.767 OD
- A450 [34]: 0.348 OD
- Kd [35]: 3.01 nM
B1: 20H4 (antibody, rat IgG2b, V domains shown)
VH: AVQLVESGGGLVQPKESLKISCAASGFTFSNAAMYWVRQAPGKGLELLARIRTKPNNYATYHADSVKGRFTISRDDSQSMVYLHMGNLKTEDTAMYYCTADMATGDYWGPGVMVTVSS
VL: DIQMTQSPPVLSVSVGDRVTLSCKASQNINKNLDWYQQKHGEAPKPLIYSTNNLQTGVPSRFSGSGSGTDYTLTISSLQPEDVATYYCYQYKSAWTFGGGTKLELR
notes: also called clone 20H4; rat 20H4
